Earlier results in publication PMC8199771.

Tests used:
[1] = biological target: muscle nAChR alpha1-gamma and alpha1-delta interfaces (Mus musculus) (UniProt P04756)
[2] = biological target: muscle nAChR alpha1-epsilon interface (Mus musculus) (UniProt P04756)
[3] = biological target: muscle nAChR alpha-epsilon interface (Mus musculus) (UniProt P04756)
[4] = biological target: muscle nAChR (Homo sapiens) (UniProt P02708)
[5] = biological target: muscle nAChR alpha-delta interface (Mus musculus) (UniProt P04756)

**Q.** For NmmI (from UniProt P01431), which Kd [1] is on record?
**A.** 0.1 nM

**Q.** What about the Kd [2] of the same substance?
**A.** 100 nM

**Q.** Which results are given for Waglerin-1 (from UniProt P24335)?
**A.** Kd [3]: 9.8 nM; Kd [4]: 692 nM; Kd [5]: 20200 nM
